Laboratory results: the Immune Epitope Database (IEDB)

Tests used:
HLA-A*24:03 = experiment: IEDB peptide-MHC binding, purified MHC/direct/fluorescence; filed as Kd, often an IC50 or EC50 that approximates it; ≥ and ≤ were set here for values at or beyond the usual limits of such assays
HLA-A*01:01 = experiment: as above
HLA-A*11:01 = experiment: as above
HLA-A*31:01 = experiment: as above
HLA-A*69:01 = experiment: as above
HLA-B*07:02 = experiment: as above
HLA-A*02:01 = experiment: as above
HLA-A*03:01 = experiment: as above
HLA-B*15:01 = experiment: as above
HLA-A*26:01 = experiment: as above
HLA-B*40:01 = experiment: as above
HLA-B*58:01 = experiment: as above
HLA-B*08:01 = experiment: as above
HLA-B*27:05 = experiment: as above
HLA-A*02:50 = experiment: IEDB peptide-MHC binding, purified MHC/competitive/fluorescence; filed as Kd, often an IC50 or EC50 that approximates it; ≥ and ≤ were set here for values at or beyond the usual limits of such assays
HLA-B*44:02 = experiment: IEDB peptide-MHC binding, purified MHC/direct/fluorescence; filed as Kd, often an IC50 or EC50 that approximates it; ≥ and ≤ were set here for values at or beyond the usual limits of such assays; conditions: source organism: Yersinia pestis
HLA-A*02:11 = experiment: as above; conditions: source organism: Burkholderia mallei ATCC 23344
[1] = source organism: Haemophilus influenzae
[2] = source organism: Yersinia pestis
[3] = source organism: Burkholderia mallei

## LIFPAFFLC
HLA-A*24:03; [1]
  Kd: ≥ 20 µM
HLA-A*01:01; [1]
  Kd: 5.24 µM
HLA-A*11:01; [1]
  Kd: ≥ 20 µM
HLA-A*31:01; [1]
  Kd: ≥ 20 µM
HLA-A*69:01; [1]
  Kd: ≥ 20 µM
HLA-B*07:02; [1]
  Kd: ≥ 20 µM
HLA-A*02:01; [1]
  Kd: 5.1 µM
HLA-A*03:01; [1]
  Kd: ≥ 20 µM
HLA-B*15:01; [1]
  Kd: ≥ 20 µM
HLA-A*26:01; [1]
  Kd: ≥ 20 µM
HLA-B*40:01; [1]
  Kd: ≥ 20 µM
HLA-B*58:01; [1]
  Kd: ≥ 10 µM
HLA-B*08:01; [1]
  Kd: ≥ 20 µM
HLA-B*27:05; [1]
  Kd: ≥ 20 µM
HLA-A*02:50; source organism: Haemophilus influenzae PittAA
  Kd: 0.012 µM

## LLIDDSFSS
HLA-A*24:03; [2]
  Kd: ≥ 20 µM
HLA-B*44:02
  Kd: ≥ 20 µM
HLA-A*01:01; [2]
  Kd: ≥ 20 µM
HLA-A*11:01; [2]
  Kd: ≥ 20 µM
HLA-A*31:01; [2]
  Kd: ≥ 20 µM
HLA-A*69:01; [2]
  Kd: ≥ 20 µM
HLA-B*07:02; [2]
  Kd: ≥ 20 µM
HLA-A*02:01; [2]
  Kd: 0.65 µM
HLA-A*03:01; [2]
  Kd: ≥ 20 µM
HLA-B*15:01; [2]
  Kd: 1.89 µM
HLA-A*26:01; [2]
  Kd: ≥ 20 µM
HLA-B*40:01; [2]
  Kd: ≥ 20 µM
HLA-B*58:01; [2]
  Kd: ≥ 20 µM
HLA-B*08:01; [2]
  Kd: ≥ 20 µM
HLA-B*27:05; [2]
  Kd: ≥ 20 µM
HLA-A*02:50; source organism: Yersinia pestis Nepal516
  Kd: 0.0025 µM

## MQQAYQCIV
HLA-A*69:01; [3]
  Kd: 9.04 µM
HLA-A*02:01; [3]
  Kd: 0.0865 µM
HLA-A*02:11
  Kd: 0.028 µM
HLA-A*02:50; source organism: Burkholderia mallei NCTC 10229
  Kd: 0.0116 µM
